Experimental findings from patent US20220096653A1, “CONJUGATE COMPRISING LIGAND AND CEACAM5 ANTIBODY FAB FRAGMENT” (ASTELLAS PHARMA INC., priority 2019, published 2022) are described below.

Sequences and labels used below:
T1: CEACAM5 (R&D Systems, 4128-CM-050) (human, UniProt P06731 35-685)
T1 construct: Immobilised on the ELISA plate; also called human CEACAM5
T1 sequence (looked up): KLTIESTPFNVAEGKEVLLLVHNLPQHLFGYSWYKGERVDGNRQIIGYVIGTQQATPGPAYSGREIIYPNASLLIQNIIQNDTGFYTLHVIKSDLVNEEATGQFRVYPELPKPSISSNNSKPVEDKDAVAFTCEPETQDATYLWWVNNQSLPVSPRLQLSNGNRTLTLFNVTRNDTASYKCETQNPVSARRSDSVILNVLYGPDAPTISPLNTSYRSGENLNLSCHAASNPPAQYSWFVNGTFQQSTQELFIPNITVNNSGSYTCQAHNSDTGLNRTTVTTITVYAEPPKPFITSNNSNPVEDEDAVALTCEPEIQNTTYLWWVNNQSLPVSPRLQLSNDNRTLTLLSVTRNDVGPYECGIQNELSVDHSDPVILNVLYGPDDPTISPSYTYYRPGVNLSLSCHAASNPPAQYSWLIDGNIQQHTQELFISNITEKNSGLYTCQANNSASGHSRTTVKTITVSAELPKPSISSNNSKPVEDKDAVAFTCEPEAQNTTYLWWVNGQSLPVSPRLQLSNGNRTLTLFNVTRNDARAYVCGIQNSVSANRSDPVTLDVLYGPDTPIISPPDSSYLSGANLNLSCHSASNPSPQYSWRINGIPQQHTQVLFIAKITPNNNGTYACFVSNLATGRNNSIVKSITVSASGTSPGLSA

B1: (Y-S1-X)p-Fab^2 with Y Gd/DOTA, S1 -NH-(CH2)2-C(═O)-, X -Gly-Lys*-Z2(#N)- (Fab, V domains shown)
VH: EVQLVESGGGLVQPGGSLRLSCAASGFNIRDTYMHWVRQAPGKGLEWVARIDPANGNSRYVPKFQGRFTISADTSRNTAYLQMNSLRAEDTAVYYCAPFGYYVSDYAMAYWGQGTLVTVSS
VL: DIQLTQSPSSLSASVGDRVTITCRAGESVDIFGVGFLHWYQQKPGKAPKLLIYRASNLESGIPSRFSGSGSRTDFTLTISSLQPEDFATYYCQQTNEDPYTFGQGTKVEIKR
modifications: labeling may sit on this chain; sites not stated; labeling portion (MW 896) on amino groups of the Fab, sites and chain not stated; 1-3 per Fab by MS
notes: also called Ex-No 22; conjugate 22
B2: (Y-S1-X)p-Fab^2 with Y Gd/DOTA, S1 spacer (c), X -Gly-Lys*-Z2(#N)- (Fab, V domains shown)
VH: EVQLVESGGGLVQPGGSLRLSCAASGFNIRDTYMHWVRQAPGKGLEWVARIDPANGNSRYVPKFQGRFTISADTSRNTAYLQMNSLRAEDTAVYYCAPFGYYVSDYAMAYWGQGTLVTVSS
VL: DIQLTQSPSSLSASVGDRVTITCRAGESVDIFGVGFLHWYQQKPGKAPKLLIYRASNLESGIPSRFSGSGSRTDFTLTISSLQPEDFATYYCQQTNEDPYTFGQGTKVEIKR
modifications: labeling may sit on this chain; sites not stated; labeling portion (MW 908) on amino groups of the Fab, sites and chain not stated; 1-3 per Fab by MS
notes: also called Ex-No 28; conjugate 28
B3: (Y-S1-X)p-Fab^2 with Y Gd/DOTA, S1 - (bond), X -Gly-(diph-Ala)-Lys*-Z2(#S)- (Fab, V domains shown)
VH: EVQLVESGGGLVQPGGSLRLSCAASGFNIRDTYMHWVRQAPGKGLEWVARIDPANGNSRYVPKFQGRFTISADTSRNTAYLQMNSLRAEDTAVYYCAPFGYYVSDYAMAYWGQGTLVTVSS
VL: DIQLTQSPSSLSASVGDRVTITCRAGESVDIFGVGFLHWYQQKPGKAPKLLIYRASNLESGIPSRFSGSGSRTDFTLTISSLQPEDFATYYCQQTNEDPYTFGQGTKVEIKR
modifications: labeling may sit on this chain; sites not stated; labeling portion (MW 1149) on amino groups of the Fab, sites and chain not stated; 1-3 per Fab by MS
notes: also called Ex-No 30; conjugate 30
B4: (Y-S1-X)p-Fab^2 with Y Gd/DOTA, S1 given only as drawing CHEM-US-00151, X -Met-Gly-Lys*-Z2(#N)- (Fab, V domains shown)
VH: EVQLVESGGGLVQPGGSLRLSCAASGFNIRDTYMHWVRQAPGKGLEWVARIDPANGNSRYVPKFQGRFTISADTSRNTAYLQMNSLRAEDTAVYYCAPFGYYVSDYAMAYWGQGTLVTVSS
VL: DIQLTQSPSSLSASVGDRVTITCRAGESVDIFGVGFLHWYQQKPGKAPKLLIYRASNLESGIPSRFSGSGSRTDFTLTISSLQPEDFATYYCQQTNEDPYTFGQGTKVEIKR
modifications: labeling may sit on this chain; sites not stated; labeling portion (MW 1101) on amino groups of the Fab, sites and chain not stated; 1-2 per Fab by MS
notes: also called Ex-No 34; conjugate 34
B5: (Y-S1-X)p-Fab^2 with Y Gd/DOTA, S1 - (bond), X -Gly-(naph-Ala)-Lys*-Z2(#S)- (Fab, V domains shown)
VH: EVQLVESGGGLVQPGGSLRLSCAASGFNIRDTYMHWVRQAPGKGLEWVARIDPANGNSRYVPKFQGRFTISADTSRNTAYLQMNSLRAEDTAVYYCAPFGYYVSDYAMAYWGQGTLVTVSS
VL: DIQLTQSPSSLSASVGDRVTITCRAGESVDIFGVGFLHWYQQKPGKAPKLLIYRASNLESGIPSRFSGSGSRTDFTLTISSLQPEDFATYYCQQTNEDPYTFGQGTKVEIKR
modifications: labeling may sit on this chain; sites not stated; labeling portion (MW 1123) on amino groups of the Fab, sites and chain not stated; 1-2 per Fab by MS
notes: also called Ex-No 31; conjugate 31
B6: [Gd/DOTA-NH-CH2-(1,3-Ph)-C(═O)-Met-Gly-Lys*-Z2(#S)]p-Fab^2 (Fab, V domains shown)
VH: EVQLVESGGGLVQPGGSLRLSCAASGFNIRDTYMHWVRQAPGKGLEWVARIDPANGNSRYVPKFQGRFTISADTSRNTAYLQMNSLRAEDTAVYYCAPFGYYVSDYAMAYWGQGTLVTVSS
VL: DIQLTQSPSSLSASVGDRVTITCRAGESVDIFGVGFLHWYQQKPGKAPKLLIYRASNLESGIPSRFSGSGSRTDFTLTISSLQPEDFATYYCQQTNEDPYTFGQGTKVEIKR
modifications: labeling may sit on this chain; sites not stated; labeling portion (MW 1190) bound via 2-iminothiolane-treated amino groups of the Fab, sites and chain not stated; 1-2 per Fab by MS
notes: also called Ex-No 24; Conjugate No. 24
B7: (Y-S1-X)p-Fab^2 with Y Gd/DOTA, S1 -NH-(CH2CH2O)3-CH2-C(═O)-NH-CH2-(1,3-Ph)-C(═O)-, X -Gly-Lys*-Z2(#S)- (Fab, V domains shown)
VH: EVQLVESGGGLVQPGGSLRLSCAASGFNIRDTYMHWVRQAPGKGLEWVARIDPANGNSRYVPKFQGRFTISADTSRNTAYLQMNSLRAEDTAVYYCAPFGYYVSDYAMAYWGQGTLVTVSS
VL: DIQLTQSPSSLSASVGDRVTITCRAGESVDIFGVGFLHWYQQKPGKAPKLLIYRASNLESGIPSRFSGSGSRTDFTLTISSLQPEDFATYYCQQTNEDPYTFGQGTKVEIKR
modifications: labeling may sit on this chain; sites not stated; labeling portion (MW 1248) on amino groups of the Fab, sites and chain not stated; 1-2 per Fab by MS
notes: also called Ex-No 25; conjugate 25

In the experiment the target is T1, CEACAM5 (R&D Systems, 4128-CM-050). Description: ELISA on immobilised CEACAM5, 4-parameter fit, duplicate. The method, then: Each anti-human CEACAM5 antibody Fab fragment conjugate prepared in Example 2 was subjected to ELISA to evaluate the binding activity thereof to CEACAM5. In the present test, a phosphate buffer (Nacalai Tesque Inc., 0.1 mol/L-Phosphate Buffer Solution (pH 7.2)) prepared to 10 mM by diluting 10-fold with distilled water was used as a solvent for an antigen immobilization liquid, and 20×PBS/Tween 20 Buffer (Thermo Fisher Scientific Inc., 28352) diluted 20-fold with distilled water was used as a wash liquid. In addition, for bovine serum albumin (BSA) used in the present test, 30% Bovine Serum Albumin solution (Sigma-Aldrich, Inc., A9576-50ML) was added in an appropriate proportion for use. CEACAM5 (R&D Systems, 4128-CM-050) was diluted with a 10 mM phosphate buffer (pH 7.2) to 0.1 μg/mL, and added to a Nunc MaxiSorp White 384 plate (Nunc, 4603272) at 30 μL per well, and the plate was incubated overnight at 4° C. for immobilization. The CEACAM5 immobilization liquid was removed by reverse centrifugation, and then blocking was carried out by adding a PBS/Tween 20 buffer containing 5.0% BSA. Thereafter, the blocking solution was removed by reverse centrifugation, a solution of each CEACAM5 antibody Fab² fragment conjugate described above or a Fab² fragment having no labeling portion (PB009-01) as a control at about 10000 ng/mL was diluted in 14 steps by 3-fold dilution using a PBS/Tween 20 buffer containing 1.0% BSA, and 30 μL was added per well and incubated at room temperature for 60 minutes. The plate was washed 3 times with a PBS/Tween 20 buffer, and Horseradish Peroxidase (HRP)-labeled goat anti-human IgG (H+L chain) antibody (MBL Life Sciences, 206) diluted 1000-fold using a PBS/Tween 20 buffer containing 5.0% BSA was added at 30 μL per well and incubated at room temperature for 30 minutes. The plate was washed 3 times with a PBS/Tween 20 buffer, and ECL Prime Western Blotting DETECTION Reagent (GE Healthcare, RPN2232) as a substrate was added at 30 μL per well. The substrate was incubated at room temperature for 15 minutes, and then a signal value thereof was measured using an Envision counter (PerkinElmer, Inc.).
The test for each antibody was carried out in duplicate, and an EC₅₀ value was calculated using a 4-parameter logistic curve model.
In turn, B1 registered an EC50 of 0.32 nM. This lies in the sub-nanomolar range.

Take B2: a half-maximal effect (EC50) was put at 0.36 nM.

B3 showed an EC50 of 0.31 nM.

Turning to B4, the midpoint of the response, the EC50, lay at 0.38 nM.

As to B5, the response was half-maximal at 0.3 nM (EC50).

Consider B6, for which the response was half-maximal at 0.25 nM (EC50). This EC50 and that of the molecule before are within 1.5-fold of each other.

B7 registered an EC50 of 0.32 nM. This EC50 and that of the molecule before are within 1.5-fold of each other.
